Source: patent US20150246947A1 (BAXALTA, published 2015)

Experiments:
[1] = biological target: T1, human Protein S (human, UniProt P07225 42-676); experiment: Biacore (SPR), Protein S immobilized
T1 construct: Called 'full length Protein S' / 'human full-length Protein S'; It was coated on plates (ELISA), Eu-labeled (LANCE) or immobilized on a chip (Biacore); also called PS; full length Protein S
T1 sequence: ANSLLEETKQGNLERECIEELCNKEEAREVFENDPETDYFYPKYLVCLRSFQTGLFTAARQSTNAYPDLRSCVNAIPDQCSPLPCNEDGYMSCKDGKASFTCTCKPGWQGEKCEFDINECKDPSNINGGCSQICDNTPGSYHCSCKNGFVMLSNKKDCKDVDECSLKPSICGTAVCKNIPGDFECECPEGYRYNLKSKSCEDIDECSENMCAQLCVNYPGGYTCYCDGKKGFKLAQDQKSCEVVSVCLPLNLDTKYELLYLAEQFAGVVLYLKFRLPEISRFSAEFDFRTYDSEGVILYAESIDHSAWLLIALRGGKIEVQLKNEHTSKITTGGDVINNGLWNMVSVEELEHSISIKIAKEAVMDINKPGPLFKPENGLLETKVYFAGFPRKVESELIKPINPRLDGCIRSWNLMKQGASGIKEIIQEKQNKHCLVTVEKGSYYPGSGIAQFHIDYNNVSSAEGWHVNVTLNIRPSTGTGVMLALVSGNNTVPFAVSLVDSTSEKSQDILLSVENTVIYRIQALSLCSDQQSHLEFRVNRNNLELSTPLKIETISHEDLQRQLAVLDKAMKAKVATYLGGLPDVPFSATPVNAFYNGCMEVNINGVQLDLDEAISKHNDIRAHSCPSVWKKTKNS
How it was run: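 Surface plasmon resonance was used to measure peptide binding kinetics to human full-length Protein S, and Kd was calculated from the kon and koff obtained by Langmuir model fits of the sensorgrams. The protein was immobilized at 1000 RU on a […] chip in a Biacore 3000 or Biacore T200. Peptides were injected at various concentrations in HBS-buffer with 3 mM CaCl₂ and 1% DMSO, and the chip was regenerated using 4 M MgCl₂ in HBS-buffer.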

[2] = biological target: T1, human Protein S; experiment: LANCE TR-FRET; peptide added to preformed C4BP/Protein S complex; competitor C4BP
Experimental: To investigate the effect of the peptides described herein on PS/C4BP complexes, a LANCE IC50 assay was established using methods similar to those described above. JBS2572 or JBS3216 was added to a preformed C4BP/PS complex. Changes in the complex concentration were followed by recording the TR-FRET signal. For both peptides, a time- and concentration-dependent dissociation of the C4BP/PS complex was observed. […] The time-dependency of the complex reduction was similar for both peptides. After two hours of incubation in the presence of 100 nM JBS2572 or JBS3216, the C4BP/PS complex was reduced to 60% and 50%, respectively. In addition, binding of biotinylated JBS2572 to Protein S was inhibited by C4BP in the LANCE IC50 assay. Pull-down experiments where JBS2697 was coupled to streptavidin sepharose and incubated for one hour at room temperature with (a) Protein S (1.6 pmol) (b) C4BP (8.5 pmol) and (c) Protein S (1.6 pmol)+C4BP (8.5 pmol) supported the results from the modified LANCE IC50 assay. JBS2697 interacted with free Protein S only from experiment (a) with Protein S alone and from experiment (c) with the C4BP-Protein S mixture.

[3] = biological target: T2, human Protein S (UniProt P07225 42-676); experiment: LANCE competition
T2 chain: T1 sequence
How it was run: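 This homogeneous time-resolved FRET competition assay (LANCE) used europium-labelled Protein S, ULight-labelled streptavidin and a biotinylated tracer peptide, with unlabelled test peptide titrated in three-fold steps. Final concentrations were 10 nM Protein S, 100 nM streptavidin and 300 nM tracer in 50 µl (or 2 nM Protein S and 60 nM tracer on a Tecan F500). Samples were incubated 1 hour at room temperature and read at Ex 340 nm, Em 665 nm. IC50 came from non-linear regression of the 665 nm signals.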

[4] = biological target: T1, human Protein S; experiment: cell-based or functional assay

Kd [1]: 0.2 nM
koff [1]: 0.000233 s⁻¹
kon [1]: 1.14e+06 M⁻¹ s⁻¹
IC50 [2]: 0.3 nM
IC50 [3]: 0.7 nM
CAT EC50, human hemophilia A patient plasma [4]: 85 nM
Binder: Ac-EYYVSAGWYDYNTDTYYEFE-NH2 [JBS3216]
